From patent CN105330739A (WATERSTONE PHARMACEUTICALS WUHAN CO LTD, dated 2016)

Molecular target: T1, 鼠VEGF (mouse, UniProt Q00731-2 27-190, limits assumed)
T1 construct: Coated on the ELISA plate at 0.5 ug/ml; also called mouse VEGF
T1 sequence (looked up): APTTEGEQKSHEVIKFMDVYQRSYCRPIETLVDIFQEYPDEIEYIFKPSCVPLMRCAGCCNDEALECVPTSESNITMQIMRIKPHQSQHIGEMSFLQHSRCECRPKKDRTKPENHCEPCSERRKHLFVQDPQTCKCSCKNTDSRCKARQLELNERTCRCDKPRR
Test: ELISA, mouse VEGF coated at 0.5 ug/ml

B1: NevegiMab抗体 (antibody, V domains shown)
VH: EVKLQESGPELKKPGETVKISCKASGYTFTNYGLNWVKQAPGKGLKWMGWINTYTGEPTYADDFKGRFAFSLETSASTAYLQINNLKNEDMATYFCAKYGITYEWYFDVWGAGTTVTVSS
VL: DIVLTQSTSSLSASLGDRVTISCRASQDISNSLNWYQQKPNGTVILLIYYTSRLHSGVPSRFSGSGSGAVYSLTISDLEQEDIATYFCQQGNTFPWTFGGGTKLEIKR
notes: Mouse monoclonal antibody purified from hybridoma supernatant; also called 单抗NevegiMab; 单克隆抗体NevegiMab
binding result: no binding
